The results in this text go back to patent US20150010920.

In this data set the target is EGFP-T/C1 (EGFP-E-III-F-172).

B1: protease type X (Sigma, St. Louis) (protein)
chain: ITGTSTVGVGRGVLGDQKNINTTYSTYYYLQDNTRGNGIFTYDAKYRTTLPGSLWADADNQFFASYDAPAVDAHYYAGVTYDYYKNVHNRLSYDGNNAAIRSSVHYSQGYNNAFWNGSQMVYGDGDGQTFIPLSGGIDVVAHELTHAVTDYTAGLIYQNESGAINEAISDIFGTLVEFYANKNPDWEIGEDVYTPGISGDSLRSMSDPAKYGDPDHYSKRYTGTQDNGGVHINSGIINKAAYLISQGGTHYGVSVVGIGRDKLGKIFYRALTQYLTPTSNFSQLRAAAVQSATDLYGSTSQEVASVKQAFDAVGVK
For B1, the “optical change / cleavage (absorbance at 397 nm, SDS-PAGE, MALDI-MS)” value is “this sensor was not cleaved by thrombin and protease type X”.
